Reference: the supplement of paper PMC9112550, “Optimization of the antimicrobial peptide Bac7 by deep mutational scanning” (BMC Biology, 2022)

tested on: Escherichia coli TOP10; experiment: shrunken log2 fold change of peptide-encoding DNA abundance (4.5 h post-induction vs induction); higher = less antimicrobial activity (less host growth inhibition); conditions: time post-induction: 4.5 h; library: site-saturation at positions 5, 18, 19, 20
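Further: peptides expressed intracellularly from a pBAD plasmid library in pooled LB shake-flask culture, induced with 0.3% L-arabinose, DNA abundance read by NGS, three biological replicates, DESeq2 with apeglm shrinkage.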

Point of comparison: RRIRWRPPRLPRPRPRPGFAPRP, “shrunken log2 fold change” value 0.382. Against it:
- RRIRCRPPRLPRPRPRPKWHPRP — lower, -0.169
- RRIRVRPPRLPRPRPRPTRAPRP — higher, 0.665
- RRIRWRPPRLPRPRPRPLTVPRP — lower, -0.0954
- RRIRKRPPRLPRPRPRPDEDPRP — lower, -0.00112
- RRIRPRPPRLPRPRPRPEFPPRP — lower, -0.00714
- RRIRCRPPRLPRPRPRPPLKPRP — within 0.2 log units, 0.353
- RRIRHRPPRLPRPRPRPRKPPRP — within 0.2 log units, 0.321
- RRIRRRPPRLPRPRPRPLEQPRP — lower, 0.166
- RRIRMRPPRLPRPRPRPCYPPRP — lower, -0.352
- RRIRDRPPRLPRPRPRPCDLPRP — lower, -0.0487
- RRIRARPPRLPRPRPRPGKRPRP — within 0.2 log units, 0.374
- RRIRCRPPRLPRPRPRPPWDPRP — within 0.2 log units, 0.526
- RRIRTRPPRLPRPRPRPESIPRP — lower, -0.114
- RRIRFRPPRLPRPRPRPWARPRP — lower, -0.114
- RRIRYRPPRLPRPRPRPVESPRP — lower, -0.0746
- RRIRDRPPRLPRPRPRPRIPPRP — lower, -0.108
- RRIRWRPPRLPRPRPRPKPHPRP — within 0.2 log units, 0.351
- RRIRARPPRLPRPRPRPCLVPRP — lower, 0.0528
- RRIRVRPPRLPRPRPRPASPPRP — lower, 0.102
- RRIRCRPPRLPRPRPRPFTGPRP — lower, -0.0668
- RRIRCRPPRLPRPRPRPFQQPRP — lower, -0.00107
- RRIRGRPPRLPRPRPRPFATPRP — higher, 2.68
- RRIRFRPPRLPRPRPRPSWHPRP — lower, -0.475
- RRIRARPPRLPRPRPRPNLYPRP — lower, -0.345
- RRIRHRPPRLPRPRPRPVCTPRP — lower, -0.108
- RRIRWRPPRLPRPRPRPQLYPRP — within 0.2 log units, 0.185
- RRIRPRPPRLPRPRPRPTVKPRP — lower, -0.00591
- RRIRRRPPRLPRPRPRPKPTPRP — within 0.2 log units, 0.426
- RRIRDRPPRLPRPRPRPTSTPRP — within 0.2 log units, 0.231
- RRIRFRPPRLPRPRPRPVEHPRP — lower, -0.0778
- RRIRMRPPRLPRPRPRPSWIPRP — lower, 0.0389
- RRIRQRPPRLPRPRPRPKREPRP — lower, 0.119
- RRIRSRPPRLPRPRPRPYTEPRP — lower, -0.186
- RRIRDRPPRLPRPRPRPTWYPRP — lower, -0.238
- RRIRDRPPRLPRPRPRPICIPRP — lower, 0.0464
- RRIRQRPPRLPRPRPRPDVRPRP — lower, -0.023
- RRIRMRPPRLPRPRPRPERNPRP — lower, 0.0507
- RRIRDRPPRLPRPRPRPIWSPRP — lower, -0.0288
- RRIRCRPPRLPRPRPRPPMAPRP — within 0.2 log units, 0.263
- RRIRVRPPRLPRPRPRPFSSPRP — lower, -0.068
- RRIRGRPPRLPRPRPRPLFRPRP — within 0.2 log units, 0.444
- RRIRDRPPRLPRPRPRPLEHPRP — lower, -0.164
- RRIRWRPPRLPRPRPRPIMFPRP — lower, -0.189
- RRIRYRPPRLPRPRPRPAYFPRP — lower, -0.782
- RRIRDRPPRLPRPRPRPSNNPRP — lower, -0.487
- RRIRWRPPRLPRPRPRPAGRPRP — higher, 0.695
- RRIRVRPPRLPRPRPRPQSCPRP — lower, -0.342
- RRIRARPPRLPRPRPRPWLGPRP — within 0.2 log units, 0.417
- RRIRCRPPRLPRPRPRPMMWPRP — lower, -0.137
- RRIRFRPPRLPRPRPRPLFCPRP — lower, -0.462
- RRIRYRPPRLPRPRPRPVKAPRP — lower, -0.0854
- RRIRVRPPRLPRPRPRPGEYPRP — lower, 0.00369
- RRIRKRPPRLPRPRPRPKKEPRP — lower, 0.00375
- RRIRCRPPRLPRPRPRPQMMPRP — lower, -0.346
- RRIRIRPPRLPRPRPRPMEWPRP — lower, -0.00133
- RRIRPRPPRLPRPRPRPMKEPRP — lower, 0.104
- RRIRLRPPRLPRPRPRPIPSPRP — lower, -0.177
- RRIRARPPRLPRPRPRPYLFPRP — lower, -0.494
- RRIRERPPRLPRPRPRPMIWPRP — lower, -0.21
